{"source": "patent US20160348147", "key": {"[1]": {"target": "T1, A4 construct M(YPSDGRGQ)40YGDGQVPMSMRGGDEGQQDDEEGY", "T1 chain": "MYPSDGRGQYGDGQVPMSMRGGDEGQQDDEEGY"}, "[2]": {"target": "T2, MSKGPGWGVG(VPGVG)60GDGQVPMSMRGGDDEGQQDDEE(VPGAGVPGGG)30YG fusion polypeptide", "T2 chain": "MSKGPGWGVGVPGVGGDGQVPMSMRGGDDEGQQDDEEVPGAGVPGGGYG"}, "[3]": {"target": "T3, ELP-substrate fusion M(GVGVP)60GDGQVPMSMRGGDDEGQQDDEEGY", "T3 chain": "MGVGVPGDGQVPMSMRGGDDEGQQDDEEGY"}}}
{"protein": "Human MMP-1 catalytic domain (recombinant, produced in E. coli, 19.9 kDa) (protein) FVLTEGNPRWEQTHLTYRIENYTPDLPRADVDHAIEKAFQLWSNVTPLTFTKVSEGQADIMISFVRGDHRDNSPFDGPGGNLAHAFQPGPGIGGDAHFDEDERWTNNFREYNLHRVAAHELGHSLGLSHSTDIGALMYPSYTFSGDVQLAQDDIDGIQAIYGRSQNPVQP", "values": [{"measurement": "transition temperature of 25 µM A4 before and after incubation with 25 ng/mL MMP-1 at 37 C", "setting": "[1]", "value": "a change in transition temperature of A4 construct at 25 µM prior to (solid line) and after (dashed line) incubation with 25 ng/mL of MMP-1 enzyme"}, {"measurement": "optical density versus temperature before and after incubation with MMP-1", "setting": "[2]", "value": "Incubation of these micelles with MMP-1 enzyme is shown to result in drastic changes in optical densities at the micelle-forming transition temperature"}, {"measurement": "catalytic constant (kcat) from Lineweaver-Burke plot, SDS-PAGE densitometry, 20 ng/mL enzyme, 40 C", "setting": "[3]", "value": "8.0 ± 1.9", "unit": "s⁻¹"}, {"measurement": "mass spectrometry of the polypeptide before and after incubation with 100 ng/mL MMP-1 for 2 h at 25 C", "setting": "[3]", "value": "most of the 1.8 kDa MMP-sensitive peptide is cleaved off the 25.4 kDa ELP"}, {"measurement": "optical density at 350 nm and DLS particle size after 12 h with 100 ng/mL MMP-1 at 40 C", "setting": "[3]", "value": "the optical density of the solution shows a dramatic increase as the solution is heated above the CMT to 45 °C"}]}
